Source: the supplement of paper PMC10126150
± gives the standard deviation of the averaged measurements.

System: ATP
Test: switch fluorescence ratio, 500 uM ATP over buffer (Cy3 cluster intensity, sum of 5 cycles each) (fold (ratio)); higher = stronger signal-on switching upon ATP binding; sequences stand for … in TCGTCGGCAGCGTCAGATGTGTATAAGAGACAGTTTTTTTTTTTTTTTTTTTTTTTTT…TC
Conditions: aptamer strand: ATP DNA aptamer (quencher-CACCTGGGGGAGTATTGCGGAGGAAGG + anchor), 100 nM annealed; ATP concentration: 500 uM
In short: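 Per cluster, summed Cy3 intensity from the target cycles was divided by that from the buffer cycles to give the fluorescence ratio, then averaged per switch-domain sequence. Clusters outside 100-1000 RFU were excluded. The Cy3-labelled switching-strand clusters, on a modified Illumina MiSeq flow-cell, were annealed to 100 nM quencher-labelled ATP aptamer and imaged in selection buffer, then after 15 min with 500 uM ATP at 22 °C, for five cycles with NaOH stripping and re-annealing between them.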
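Note: ATP exposure 15 min at 22 °C before imaging.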

| Sequence | switch fluorescence ratio |
| --- | --- |
| TAACTAATAA | 1.01 ± 0.018 |
| ATTTATACGG | 1.02 ± 0.015 |
| GTTTTGGTG | 1.08 ± 0.12 |
| TACCATGGTA | 0.987 ± 0.035 |
| CTTGGTTTCT | 1.032 ± 0.0093 |
| CTAGACAGGG | 1.028 ± 0.0022 |
| GGGGACAAAT | 1.05 ± 0.0011 |
| GTATGGAGAG | 1.0111 ± 6.5e-05 |
| CCGGACCAGA | 1.15 ± 0.057 |
| GTGGTTAGGT | 1 ± 0.034 |
| TATGGGTGGC | 1.02 ± 0.11 |
| TGGGAAGGGC | 1.02 ± 0.03 |
| TTTGGAGGGT | 1.02 ± 0.064 |
| AATAGATATG | 1.01 ± 0.0018 |
| AAGAAATTAA | 1.01 ± 0.045 |
| ATAACGCAGT | 1.0027 ± 0.00069 |
| TGTTAGTTTG | 0.981 ± 0.029 |
| CGGACGTGAC | 2.79 ± 0.2 |
| CGGCGGGGGA | 1.04 ± 0.043 |
| CATTTATTCT | 0.9615 ± 0.0021 |
| TCAAGATTTT | 0.975 ± 0.025 |
| TACCGAAGGG | 0.989 ± 0.028 |
| TTTGAAAAGC | 0.986 ± 0.018 |
| AAGTTGGGG | 0.99 ± 0.039 |
| AAAGAGTCGT | 0.9883 ± 0.0027 |

| Sequence | switch fluorescence ratio |
| --- | --- |
| GTCATTGTAT | 0.966 ± 0.028 |
| GCGCAGGCTT | 0.986 ± 0.022 |
| CGGTCGGGGA | 1 ± 0.043 |
| CGCAATTGTT | 2.49 ± 0.55 |
| CGTTAGCTTT | 1.02 ± 0.026 |
| GATACTCTTA | 1.021 ± 0.0081 |
| GTTAATGTCG | 1.056 ± 0.0053 |
| AATGGGTGTG | 1.01 ± 0.023 |
| TAGGAGAGCC | 1.03 ± 0.017 |
| TCTCCAGATA | 1.12 ± 0.034 |
| TGAGTAGCGT | 0.9631 ± 0.0063 |
| AAAGGCGGTG | 0.976 ± 0.023 |
| ACGTGTGAC | 1 ± 0.023 |
| GAGTTAAACA | 0.994 ± 0.021 |
| TTCATTGGGA | 1.01 ± 0.025 |
| GGGTTAATGC | 1.03 ± 0.047 |
| GGCAAAAACG | 1.16 ± 0.22 |
| AGAGTCATTA | 0.995 ± 0.012 |
| TATGAAGCCC | 1.02 ± 0.039 |
| AGGTAGGCCT | 0.991 ± 0.025 |
| AAGGGCTTTA | 1.01 ± 0.023 |
| GATAGAGGGT | 1.01 ± 0.033 |
| GATCTTTCTG | 0.994 ± 0.041 |
| TACGAGACGG | 1.095 ± 0.0059 |
| TTTATAAAGG | 1.01 ± 0.034 |

| Sequence | switch fluorescence ratio |
| --- | --- |
| TTTAACGAAT | 1.09 ± 0.099 |
| AACCGGGGGG | 0.994 ± 0.045 |
| AGCTCAGGGA | 1.04 ± 0.027 |
| TGTGGTTTTA | 1 ± 0.033 |
| TCTTAAAGGG | 0.9808 ± 0.0011 |
| TTTCGAGTTA | 1.03 ± 0.063 |
| GGGGTAAACT | 1.01 ± 0.034 |
| GATGGGGGTA | 0.973 ± 0.033 |
| AGTGGTACCG | 0.99 ± 0.024 |
| AGTGTGGCCT | 1 ± 0.025 |
| TTATTCTTTC | 1.01 ± 0.046 |
| TTTGATACGC | 1.04 ± 0.031 |
| CGGTTTGGTA | 0.976 ± 0.014 |
| GAATAAGAGA | 0.974 ± 0.036 |
| ACGTAGGCGG | 1.02 ± 0.062 |
| TAGGCTGGGC | 0.9673 ± 0.0041 |
| GCTGCTGGGT | 1.01 ± 0.032 |
| GCGGGTGGTA | 1.01 ± 0.041 |
| AATAGTGCCC | 0.999 ± 0.053 |
| CATCTTTGCA | 0.9943 ± 0.0063 |
| ATCGGGGGGG | 1 ± 0.035 |
| GGGGCCCGGG | 1.04 ± 0.036 |
| TCAATAGAGG | 1.05 ± 0.034 |
| TTTGCTGCAG | 1.003 ± 0.003 |
| TTTGGCTGGA | 1.04 ± 0.072 |

| Sequence | switch fluorescence ratio |
| --- | --- |
| AGGAAAGGGC | 0.983 ± 0.034 |
| CCTGGGGGGC | 1.09 ± 0.18 |
| ATTGATGTTT | 1.01 ± 0.024 |
| AAGATGGGGT | 0.991 ± 0.017 |
| TATAAGGGGT | 0.9862 ± 0.0083 |
| TGGATGTGAT | 1.03 ± 0.049 |
| GTTTTAGCGG | 0.964 ± 0.027 |
| TGAAGGAGGT | 1 ± 0.015 |
| TTTTTTCCTT | 1.01 ± 0.034 |
| AGAGCATGAT | 1.03 ± 0.024 |
| AACGGGCGGG | 1.15 ± 0.014 |
| ATAGTAGGTA | 0.99137 ± 0.00055 |
| CATGATTGAT | 0.976 ± 0.029 |
| ATACCTGGTC | 1.053 ± 0.0017 |
| TTTGAAGTCT | 0.978 ± 0.09 |
| CGTTAAATAA | 1.004 ± 0.0054 |
| TGCCGGGGAC | 1.04 ± 0.034 |
| CCTAACAGGA | 1.01 ± 0.04 |
| AGGGGTATT | 1 ± 0.014 |
| TTGATGGGAT | 0.988 ± 0.052 |
| CATTAGAGGG | 0.988 ± 0.031 |
| TGCAATTTGT | 1 ± 0.078 |
| AACTTATGTC | 0.9738 ± 0.0069 |
| TTCAGGAGAC | 1.01 ± 0.041 |
| AGGACGGCAG | 0.964 ± 0.13 |

| Sequence | switch fluorescence ratio |
| --- | --- |
| GATAGACTTA | 0.949 ± 0.03 |
| AACCTCGTCT | 1.07 ± 0.039 |
| CAAGGACGTT | 0.997 ± 0.02 |
| CGTTTGATGG | 0.9807 ± 0.0047 |
| TAAAAAGTGG | 0.976 ± 0.038 |
| AACAAGTTAG | 1.01 ± 0.015 |
| CATTGGGTG | 1.05 ± 0.018 |
| AGGGGCTGGG | 0.99 ± 0.017 |
| AGTAGGCCTA | 1.04 ± 0.025 |
| TACTTCATTC | 1.037 ± 0.0095 |
| ATGGCATAAG | 1.003 ± 0.0044 |
| CATGGATGAA | 1.04 ± 0.007 |
| GGGTTAAGCT | 0.989 ± 0.029 |
| GTGGACCTGA | 1.07 ± 0.02 |
| GTGGTCTGTG | 0.972 ± 0.018 |
| GGCTAAGTTT | 0.97 ± 0.02 |
| TTTTAAAGGA | 1 ± 0.023 |
| GGGTATCTCG | 0.9938 ± 0.0063 |
| TTATACGATG | 1.01 ± 0.025 |
| TGGGTAACGT | 0.987 ± 0.033 |
| CAGCTGGGGG | 1 ± 0.024 |
| TTTCAGGGGA | 1.19 ± 0.32 |
| CGGACTGGGC | 0.959 ± 0.051 |
| GGGTTGTGTA | 1 ± 0.014 |
| CGGGCGAGGG | 0.959 ± 0.011 |

| Sequence | switch fluorescence ratio |
| --- | --- |
| TAGGGCAGAG | 0.994 ± 0.021 |
| TCGAGTGTGC | 1.06 ± 0.021 |
| ATAAAGAGAG | 1.01 ± 0.023 |
| AAGAATTTTG | 0.999 ± 0.027 |
| TTTAGGACGT | 0.999 ± 0.059 |
| ACGTAAACGC | 1.085 ± 0.0018 |
| GAGTGTGTTC | 1.01 ± 0.024 |
| AAAATGAAAA | 0.987 ± 0.0071 |
| TGGCGTTTAC | 1.46 ± 0.64 |
| AGGTGCATAC | 1.45 ± 0.32 |
| ACTGCAAAAT | 1.127 ± 0.0017 |
| ATGTAGTGCA | 0.995 ± 0.034 |
| ATTAGCTTAG | 0.987 ± 0.017 |
| ATCAGGGGGA | 0.997 ± 0.02 |
| TATCTATGTA | 1.01 ± 0.02 |
| GTTGGGGGTC | 0.995 ± 0.011 |
| TGCTACGGCG | 1.02 ± 0.019 |
| GAAAAAGTCA | 1.01 ± 0.023 |
| TTAAAAGGGT | 0.99 ± 0.013 |
| CTTTGATTTT | 1.01 ± 0.019 |
| TTATCCGGGT | 0.9661 ± 0.0088 |
| GGTGATATGT | 0.997 ± 0.018 |
| CATCTAAGGG | 0.983 ± 0.042 |
| TAGGTTTCTT | 1.01 ± 0.031 |
| GGTTTGCAGC | 0.975 ± 0.021 |

| Sequence | switch fluorescence ratio |
| --- | --- |
| TTTGGATGTT | 1 ± 0.011 |
| CTGATAGGAT | 1.22 ± 0.37 |
| GACGATATGT | 1.07 ± 0.041 |
| CTTTGGAGGT | 0.985 ± 0.016 |
| CGGAGATCGG | 0.999 ± 0.013 |
| GATTGCAGGA | 0.9989 ± 0.0039 |
| ATTAACTGGG | 1.01 ± 0.023 |
| TGGGCTTCGG | 0.9689 ± 0.0093 |
| TGGGAGGGTG | 1.02 ± 0.067 |
| AAGTAAATTT | 1.0226 ± 0.0004 |
| CTGATACATT | 0.9715 ± 0.0069 |
| GGTTTTTCGT | 0.977 ± 0.024 |
| GGGATAGGTT | 1.07 ± 0.12 |
| ATGGGGGTAC | 0.998 ± 0.014 |
| ACGGTGGTGT | 1.03 ± 0.016 |
| CAACACGGCA | 1.11 ± 0.026 |
| GCTTATGTAC | 1.16 ± 0.019 |
| ATGGTAGAAA | 1.02 ± 0.012 |
| CTTAATGGGG | 0.973 ± 0.024 |
| GCGGGCATTT | 0.995 ± 0.015 |
| TTAGCATTAG | 1.23 ± 0.04 |
| GACCTCGGGA | 1.024 ± 0.0028 |
| TTTAATACGA | 1.04 ± 0.042 |
| TGGTGGGGAT | 0.985 ± 0.029 |
| CGCGGAGGGG | 1.01 ± 0.049 |

| Sequence | switch fluorescence ratio |
| --- | --- |
| AGTCGGATGT | 0.989 ± 0.023 |
| CCAATTGCGC | 1.03 ± 0.031 |
| ATCTTAAGTA | 0.9977 ± 0.0091 |
| TTTCGTGGGT | 0.9863 ± 0.006 |
| CGGGCGGGTA | 1.034 ± 0.0088 |
| ACGAGGTTGG | 1.04 ± 0.084 |
| TCAGGATGGA | 1 ± 0.018 |
| TGAAGGGGTA | 1.01 ± 0.059 |
| CGCGGTAATT | 1.05 ± 0.063 |
| AATCCGACGA | 1.66 ± 0.17 |
| AGAAAAGTGT | 1.0276 ± 0.00047 |
| CCATTTCTTG | 0.9906 ± 0.0095 |
| AGAGAGCAAG | 1.07 ± 0.043 |
| GGTGGTTATC | 1.01 ± 0.021 |
| GATGCTTCTG | 1.02 ± 0.032 |
| GTCGAGAAGG | 0.991 ± 0.009 |
| GGGAATAATA | 0.991 ± 0.023 |
| TAGTGGGGTG | 0.969 ± 0.01 |
| GGCGTGCGTA | 1.01 ± 0.026 |
| CTGATGCGGG | 1.06 ± 0.062 |
| TTTGGAGTT | 1 ± 0.02 |
| GCATGAGAGG | 0.987 ± 0.021 |
| TAGCTGAAGT | 0.975 ± 0.038 |
| TTTTTAAAGG | 0.976 ± 0.013 |
| GCAGTCCCGT | 1.03 ± 0.015 |
